Data published in patent US20260049138A1 (Chugai, published 2026).

Molecular target: T1, CD3ε homodimer protein (human, UniProt P07766 23-126, limits assumed, sulfo-tag or biotin label in the ECL assays; amine-coupled to the chip in SPR)
T1 construct: also called human CD3ε homodimer protein; CD3 (CD3ε)
Test: SPR Biacore T200; CD3ε homodimer on CM4 chip;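 further: Single-residue variant antibodies injected as analyte over CD3ε homodimer immobilized by amine coupling, run at 25 °C in HBS-EP+ buffer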
Description: An appropriate amount of CD3ε homodimer protein was immobilized onto Sensor chip CM4 (GE Healthcare Japan Corp.) by the amine coupling method. Then, the antibody having an appropriate concentration was injected thereto as an analyte and allowed to interact with the CD3ε homodimer protein on the sensor chip. Then, the sensor chip was regenerated by the injection of 10 mmol/L glycine-HCl (pH 1.5). The assay was conducted at 25° C., and HBS-EP+ (GE Healthcare Japan Corp.) was used as a running buffer. […] Each parameter was calculated using Biacore T200 Evaluation Software (GE Healthcare Japan Corp.).

T1 sequence (P07766 23-126 limits assumed): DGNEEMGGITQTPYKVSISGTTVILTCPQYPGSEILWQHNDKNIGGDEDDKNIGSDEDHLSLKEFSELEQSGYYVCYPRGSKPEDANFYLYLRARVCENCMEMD

Row | Binder | ratio of amounts bound Z=Y/X (altered form / CE115HA000)
1 | CE115HA000 A102V one-arm antibody (antibody, human IgG1, kappa, L234A L235A, N297A, name in Kabat numbering) heavy: QVQLVESGGGVVQPGRSLRLSCAASGFTFSNAWMHWVRQAPGKGLEWVAQIKAKSNNYATYYAESVKGRFTISRDDSKNSLYLQMNSLKTEDTAVYYCRYVHYGAYYGVDVWGQGTTVTVSSASTKGPSVFPLAPSSKSTSGGTAALGCLVKDYFPEPVTVSWNSGALTSGVHTFPAVLQSSGLYSLSSVVTVPSSSLGTQTYICNVNHKPSNTKVDKKVEPKSCDKTHTCPPCPAPEAAGGPSVFLFPPKPKDTLMISRTPEVTCVVVDVSHEDPEVKFNWYVDGVEVHNAKTKPREEQYASTYRVVSVLTVLHQDWLNGKEYKCKVSNKALPAPIEKTISKAKGQPREPQVYTLPPSRCELTKNQVSLSCAVKGFYPSDIAVEWESNGQPENNYKTTPPVLDSDGSFFLVSKLTVDKSRWQQGNVFSCSVMHEALHNHYTQKSLSLSPDYKDDDDK EPKSSDKTHTCPPCPAPELLGGPSVFLFPPKPKDTLMISRTPEVTCVVVDVSHEDPEVKFNWYVDGVEVHNAKTKPREEQYNSTYRVVSVLTVLHQDWLNGKEYKCKVSNKALPAPIEKTISKAKGQPREPQVCTLPPSRDELTKNQVSLWCLVKGFYPSDIAVEWESNGQPENNYKTTPPVLDSDGSFFLYSKLTVDKSRWQQGNVFSCSVMHEALHNRYTQKSLSLSP light: DIVMTQSPLSLPVTPGEPASISCRSSQSLVHSNRNTYLHWYQQKPGQAPRLLIYKVSNRFSGVPDRFSGSGSGTDFTLKISRVEAEDVGVYYCGQGTQVPYTFGQGTKLEIKRTVAAPSVFIFPPSDEQLKSGTASVVCLLNNFYPREAKVQWKVDNALQSGNSQESVTEQDSKDSTYSLSSTLTLSKADYEKHKVYACEVTHQGLSSPVTKSFNRGEC | 1.43
2 | CE115HA000 A102Y one-arm antibody (antibody, human IgG1, kappa, L234A L235A, N297A, name in Kabat numbering) heavy: QVQLVESGGGVVQPGRSLRLSCAASGFTFSNAWMHWVRQAPGKGLEWVAQIKAKSNNYATYYAESVKGRFTISRDDSKNSLYLQMNSLKTEDTAVYYCRYVHYGAYYGVDYWGQGTTVTVSSASTKGPSVFPLAPSSKSTSGGTAALGCLVKDYFPEPVTVSWNSGALTSGVHTFPAVLQSSGLYSLSSVVTVPSSSLGTQTYICNVNHKPSNTKVDKKVEPKSCDKTHTCPPCPAPEAAGGPSVFLFPPKPKDTLMISRTPEVTCVVVDVSHEDPEVKFNWYVDGVEVHNAKTKPREEQYASTYRVVSVLTVLHQDWLNGKEYKCKVSNKALPAPIEKTISKAKGQPREPQVYTLPPSRCELTKNQVSLSCAVKGFYPSDIAVEWESNGQPENNYKTTPPVLDSDGSFFLVSKLTVDKSRWQQGNVFSCSVMHEALHNHYTQKSLSLSPDYKDDDDK EPKSSDKTHTCPPCPAPELLGGPSVFLFPPKPKDTLMISRTPEVTCVVVDVSHEDPEVKFNWYVDGVEVHNAKTKPREEQYNSTYRVVSVLTVLHQDWLNGKEYKCKVSNKALPAPIEKTISKAKGQPREPQVCTLPPSRDELTKNQVSLWCLVKGFYPSDIAVEWESNGQPENNYKTTPPVLDSDGSFFLYSKLTVDKSRWQQGNVFSCSVMHEALHNRYTQKSLSLSP light: DIVMTQSPLSLPVTPGEPASISCRSSQSLVHSNRNTYLHWYQQKPGQAPRLLIYKVSNRFSGVPDRFSGSGSGTDFTLKISRVEAEDVGVYYCGQGTQVPYTFGQGTKLEIKRTVAAPSVFIFPPSDEQLKSGTASVVCLLNNFYPREAKVQWKVDNALQSGNSQESVTEQDSKDSTYSLSSTLTLSKADYEKHKVYACEVTHQGLSSPVTKSFNRGEC | 0.91
3 | CE115HA000 D72A one-arm antibody (antibody, human IgG1, kappa, L234A L235A, N297A, name in Kabat numbering) heavy: QVQLVESGGGVVQPGRSLRLSCAASGFTFSNAWMHWVRQAPGKGLEWVAQIKAKSNNYATYYAESVKGRFTISRADSKNSLYLQMNSLKTEDTAVYYCRYVHYGAYYGVDAWGQGTTVTVSSASTKGPSVFPLAPSSKSTSGGTAALGCLVKDYFPEPVTVSWNSGALTSGVHTFPAVLQSSGLYSLSSVVTVPSSSLGTQTYICNVNHKPSNTKVDKKVEPKSCDKTHTCPPCPAPEAAGGPSVFLFPPKPKDTLMISRTPEVTCVVVDVSHEDPEVKFNWYVDGVEVHNAKTKPREEQYASTYRVVSVLTVLHQDWLNGKEYKCKVSNKALPAPIEKTISKAKGQPREPQVYTLPPSRCELTKNQVSLSCAVKGFYPSDIAVEWESNGQPENNYKTTPPVLDSDGSFFLVSKLTVDKSRWQQGNVFSCSVMHEALHNHYTQKSLSLSPDYKDDDDK EPKSSDKTHTCPPCPAPELLGGPSVFLFPPKPKDTLMISRTPEVTCVVVDVSHEDPEVKFNWYVDGVEVHNAKTKPREEQYNSTYRVVSVLTVLHQDWLNGKEYKCKVSNKALPAPIEKTISKAKGQPREPQVCTLPPSRDELTKNQVSLWCLVKGFYPSDIAVEWESNGQPENNYKTTPPVLDSDGSFFLYSKLTVDKSRWQQGNVFSCSVMHEALHNRYTQKSLSLSP light: DIVMTQSPLSLPVTPGEPASISCRSSQSLVHSNRNTYLHWYQQKPGQAPRLLIYKVSNRFSGVPDRFSGSGSGTDFTLKISRVEAEDVGVYYCGQGTQVPYTFGQGTKLEIKRTVAAPSVFIFPPSDEQLKSGTASVVCLLNNFYPREAKVQWKVDNALQSGNSQESVTEQDSKDSTYSLSSTLTLSKADYEKHKVYACEVTHQGLSSPVTKSFNRGEC | 1.41
4 | CE115HA000 D73A one-arm antibody (antibody, human IgG1, kappa, L234A L235A, N297A, name in Kabat numbering) heavy: QVQLVESGGGVVQPGRSLRLSCAASGFTFSNAWMHWVRQAPGKGLEWVAQIKAKSNNYATYYAESVKGRFTISRDASKNSLYLQMNSLKTEDTAVYYCRYVHYGAYYGVDAWGQGTTVTVSSASTKGPSVFPLAPSSKSTSGGTAALGCLVKDYFPEPVTVSWNSGALTSGVHTFPAVLQSSGLYSLSSVVTVPSSSLGTQTYICNVNHKPSNTKVDKKVEPKSCDKTHTCPPCPAPEAAGGPSVFLFPPKPKDTLMISRTPEVTCVVVDVSHEDPEVKFNWYVDGVEVHNAKTKPREEQYASTYRVVSVLTVLHQDWLNGKEYKCKVSNKALPAPIEKTISKAKGQPREPQVYTLPPSRCELTKNQVSLSCAVKGFYPSDIAVEWESNGQPENNYKTTPPVLDSDGSFFLVSKLTVDKSRWQQGNVFSCSVMHEALHNHYTQKSLSLSPDYKDDDDK EPKSSDKTHTCPPCPAPELLGGPSVFLFPPKPKDTLMISRTPEVTCVVVDVSHEDPEVKFNWYVDGVEVHNAKTKPREEQYNSTYRVVSVLTVLHQDWLNGKEYKCKVSNKALPAPIEKTISKAKGQPREPQVCTLPPSRDELTKNQVSLWCLVKGFYPSDIAVEWESNGQPENNYKTTPPVLDSDGSFFLYSKLTVDKSRWQQGNVFSCSVMHEALHNRYTQKSLSLSP light: DIVMTQSPLSLPVTPGEPASISCRSSQSLVHSNRNTYLHWYQQKPGQAPRLLIYKVSNRFSGVPDRFSGSGSGTDFTLKISRVEAEDVGVYYCGQGTQVPYTFGQGTKLEIKRTVAAPSVFIFPPSDEQLKSGTASVVCLLNNFYPREAKVQWKVDNALQSGNSQESVTEQDSKDSTYSLSSTLTLSKADYEKHKVYACEVTHQGLSSPVTKSFNRGEC | 0.83
5 | CE115HA000 D72V one-arm antibody (antibody, human IgG1, kappa, L234A L235A, N297A, name in Kabat numbering) heavy: QVQLVESGGGVVQPGRSLRLSCAASGFTFSNAWMHWVRQAPGKGLEWVAQIKAKSNNYATYYAESVKGRFTISRVDSKNSLYLQMNSLKTEDTAVYYCRYVHYGAYYGVDAWGQGTTVTVSSASTKGPSVFPLAPSSKSTSGGTAALGCLVKDYFPEPVTVSWNSGALTSGVHTFPAVLQSSGLYSLSSVVTVPSSSLGTQTYICNVNHKPSNTKVDKKVEPKSCDKTHTCPPCPAPEAAGGPSVFLFPPKPKDTLMISRTPEVTCVVVDVSHEDPEVKFNWYVDGVEVHNAKTKPREEQYASTYRVVSVLTVLHQDWLNGKEYKCKVSNKALPAPIEKTISKAKGQPREPQVYTLPPSRCELTKNQVSLSCAVKGFYPSDIAVEWESNGQPENNYKTTPPVLDSDGSFFLVSKLTVDKSRWQQGNVFSCSVMHEALHNHYTQKSLSLSPDYKDDDDK EPKSSDKTHTCPPCPAPELLGGPSVFLFPPKPKDTLMISRTPEVTCVVVDVSHEDPEVKFNWYVDGVEVHNAKTKPREEQYNSTYRVVSVLTVLHQDWLNGKEYKCKVSNKALPAPIEKTISKAKGQPREPQVCTLPPSRDELTKNQVSLWCLVKGFYPSDIAVEWESNGQPENNYKTTPPVLDSDGSFFLYSKLTVDKSRWQQGNVFSCSVMHEALHNRYTQKSLSLSP light: DIVMTQSPLSLPVTPGEPASISCRSSQSLVHSNRNTYLHWYQQKPGQAPRLLIYKVSNRFSGVPDRFSGSGSGTDFTLKISRVEAEDVGVYYCGQGTQVPYTFGQGTKLEIKRTVAAPSVFIFPPSDEQLKSGTASVVCLLNNFYPREAKVQWKVDNALQSGNSQESVTEQDSKDSTYSLSSTLTLSKADYEKHKVYACEVTHQGLSSPVTKSFNRGEC | 1.43
6 | CE115HA000 D72E one-arm antibody (antibody, human IgG1, kappa, L234A L235A, N297A, name in Kabat numbering) heavy: QVQLVESGGGVVQPGRSLRLSCAASGFTFSNAWMHWVRQAPGKGLEWVAQIKAKSNNYATYYAESVKGRFTISREDSKNSLYLQMNSLKTEDTAVYYCRYVHYGAYYGVDAWGQGTTVTVSSASTKGPSVFPLAPSSKSTSGGTAALGCLVKDYFPEPVTVSWNSGALTSGVHTFPAVLQSSGLYSLSSVVTVPSSSLGTQTYICNVNHKPSNTKVDKKVEPKSCDKTHTCPPCPAPEAAGGPSVFLFPPKPKDTLMISRTPEVTCVVVDVSHEDPEVKFNWYVDGVEVHNAKTKPREEQYASTYRVVSVLTVLHQDWLNGKEYKCKVSNKALPAPIEKTISKAKGQPREPQVYTLPPSRCELTKNQVSLSCAVKGFYPSDIAVEWESNGQPENNYKTTPPVLDSDGSFFLVSKLTVDKSRWQQGNVFSCSVMHEALHNHYTQKSLSLSPDYKDDDDK EPKSSDKTHTCPPCPAPELLGGPSVFLFPPKPKDTLMISRTPEVTCVVVDVSHEDPEVKFNWYVDGVEVHNAKTKPREEQYNSTYRVVSVLTVLHQDWLNGKEYKCKVSNKALPAPIEKTISKAKGQPREPQVCTLPPSRDELTKNQVSLWCLVKGFYPSDIAVEWESNGQPENNYKTTPPVLDSDGSFFLYSKLTVDKSRWQQGNVFSCSVMHEALHNRYTQKSLSLSP light: DIVMTQSPLSLPVTPGEPASISCRSSQSLVHSNRNTYLHWYQQKPGQAPRLLIYKVSNRFSGVPDRFSGSGSGTDFTLKISRVEAEDVGVYYCGQGTQVPYTFGQGTKLEIKRTVAAPSVFIFPPSDEQLKSGTASVVCLLNNFYPREAKVQWKVDNALQSGNSQESVTEQDSKDSTYSLSSTLTLSKADYEKHKVYACEVTHQGLSSPVTKSFNRGEC | 1.05
